According to the DeepSol protein solubility set:

Assay: soluble on expression in E. coli; label from the status in PepcDB or PDB records

Sequence	soluble on expression in E. coli
MGILETLVLKEKINGTEKAVIFRELIKKEMELLNDYCAKNHLFPKDYRIEFCHLHNIKKVNIARLLTILKYYDPRFIEILMSTDPKVRTFIQYFMEFLEKHPYFEDVLEPQNLFGNWDYIRYKLKILFPQLTFEEIDRFKFKRKEFINYVKEKLGEPEELIEDKLNLATWYESVPYLELESEMTPGVHPDPVMTPEEWSFIKRHIKGRKNIIIRDPDTGKEKLVYVEVDIPDEELDKYYKNREGLKKLLMERYNIDESGAEQILRKAGWEATGWHIVPPVHTDVEVVYPEEEKKEEKKVEVKREPFDIMELAKHIRYLGGRELEMLNYYELVHDKVPEIHEKLHMFMRTKRRLLGKLFGIYYTVDPVMAEAILINDPENIELLKSLTISTGLRDKKFSIYDSSKVWNEIKRRVRFIFPEVSEEEIEKFKGKRSEFVTYLAQKLGKPEEYIDERLERAGWLRSEEIPAFIRHVGP	not soluble
MGSDKIHHHHHHMMDKEIENGSVNVDLLELEKFNQLAHRWWDPNSEFKPLHEINPLRLGYIDRHARLAGKDVLDVGCGGGILSESMAESGAQVTGIDLGDKALKVAKLHLLESGNKVNYRKSSVEALAAEQPHHYDVVTCMEMLEHVPDPVSTVRACAELAKPGGWVFFSTINRNPKSYLFAVIGAEYVLNLLPRGTHDYAKFIKPSELGRMAREAGLDVQEVIGMSYNPITKVYSLGQDTDVNYIMAFRA	not soluble
MPSVISTDVLIVGAGVAGLWLNARLRRQGFSTVLVESASLGGGQSLKSQGIIHGGAKYALHGALSGASEAIADMPRRWREALDGKGELDLSGVRLLSEAHYLWSPGTIAGNLTSFFASKAVRGRVDQVKGEQLPPALQNPKFKGKVYRLAELVVDVPSLIKRLAELAEDSLLAGQKIEPLYEADELIGLRVDGRDIHAQRIVLSAGGGTADLLNALGVSQPQMQRRPLHMVLVKGPTLKPLFAHCLGGGPKPRITVTTHPAADGQCVWYLGGDLAEADGVAREPDAQIAVARKELEALLPWVDLSQAQWATLRVDRAEPAQSGLVRPDNAFLDSQRRLMVGWPTKLALAPDFADRVLSHLSKDDIHPTPQAPLVDVPRPPLAIPVWDELLPLEHHHHHH	not soluble
MRGSHHHHHHGMASMTGGNNMGRDLYDDDDKDPGRRMMHNSNADDAALTTDVVVVGGGPVGLMLAGELRAGGVGALVLEKLVEPVGHDRAGALHIRTVETLDLRGLLDRFLEGTQVAKGLPFAGIFTQGLDFGLVDTRHPYTGLVPQSRTEALLAEHAREAGAEIPRGHEVTRLRQDAEAVEVTVAGPSGPYPVRARYGVGCDGGRSTVRRLAADRFPGTEATVRALIGYVTTPEREVPRRWERTPDGILVLAFPPEGGLGPGWSSSSTGHSPAADEGPVTLEDLGAAVARVRGTPLTLTEPVSWLSRFGDASRQAKRYRSGRVLLAGDAAHVHFPIGGQGLNTGLQDAVNLGWKLAARVRGWGSEELLDTYHDERHPVAERVLLNTRAQLALMRPDEQHTTPLRGFVEELLGTDEVNRYFTGMITGTDVRYATFAPAASARPHPWPGRFAGGLVLSRPSGEPVPVAELLRSARPLLLDLAGRADLREATRPWSDRVSVVAGEATVEPPAQALLVRPDGYVAWAGSPAATADELRASLARWFGPPANREPVGHQERAGRRGRPLSALKPE	soluble
MERFLRLGGLGGNLGTFGANPQDSNQVDTSETVYISSLALLKMLKHGRAGVPMEVMGLMLGEFVDDYTVNVIDVFAMPQSGTGVSVEAVDPVFQAKMLDMLKQTGRPEMVVGWYHSHPGFGCWLSGVDINTQQSFEALSDRAVAVVVDPIQSVKGKVVIDAFRTINPQSMALNQEPRQTTSNLGHLQKPSIQALIHGLNRHYYSIPIAYRTHDLEQKMLLNLNKLSWMDAVSVENYSKCGEQNKEHLKAMLKLAKNYKKALEDEKNMTDQELAIKNVGKMDPKRHIADEVSKMLNDNIVQSLAGMMATTSLQ	not soluble
MGSDKIHHHHHHMIVETMTMVEFEEGLKRTRTVFVPFGSVEEHGCHLPLSTDTIQAYEVGKKAALQISLFVAPPIHYGSCRSTSCHPGTISITTATLKCLMKDIVRSLYAQGMRNFIILTGHAGGSHRMALQDAGEELLPEIPDIRIAVVTEYELASREGKGIIETEGDAHAGEIETSRILHTHPHLVQGRGEREFPSFPTGILVRNKRKYWPNGVWGDPAKATAEKGKRLEELVVKKIVELAAALEQFQE	not soluble
MGSDKIHHHHHHMNKRRNGLSSRSSTKGITTITIDPLMLVEMMHIHDSAFPIGGYTHSFGLETYIQRDIVKDENSLIQWCRTYLYDNLGYGDGILLKETLEVLKKSGSLAAIIEVDRLAHAQKLARESREGSLKMGRQFLQTVLPLQEDESLSQWAQLIRAKEAHGHYATTYGVFSYTRAYPDQMTMIAFLYSSVANLVHNAVRAIPLGQSTGVRVIHQLHEDCLYVAQQVVARSLNDLSNHAIGIELASMEHEHLHSRLFIS	not soluble
MINIYYNVEPLRSNEEITDFVNKARNGTHGERNALLILIGLNTGLRMSDILNLKVGQIRYHDIVHITEKKTKKRRVILLTRLRPQINHYIKDLPDNEYLFTNRQHQPLSVNAVYKLFQTIARKMHRTDIGTHTLRKTFGYHYYQQTHDIGTLMMIFNHSNEAITKRYIGLNQDVILKQMAGFQLGLEYEKATNMR	not soluble
MGSDKIHHHHHHMKWCSSMSDPKPCIICVAITGSVPTKAANPAVPITVAEQIESTHAAFEAGAAICHAHVRNDDETPSSDPEKFARLKEGVEGHCPGMIVQLSTGGRSGASKERGGMLPLRPDMASLSVGSNNFPTRVYENPPDLVDWLAAEMRTYDIKPEIEAFDLSHIHHAALMHQRGQLAGHPYVQFVMGVKNAMPADRETFDFYVATMTRLLPESEWCAAGIGPNQIVLNEWAIAAGGHARTGLEDNVRWDKQTLAPSNAALVERTAEICEKNGRPVATTAQAREILGLRT	not soluble
MGMVSDAVIRHQGKVIAVYPDGILPLEPPRQNASQLYLTSGMDERKRKLIDLGEAFVILAGGFGTMEESFQLLTEMSINQTAVRPVIFVGRKFYQPLFDLLRLQLKEGMISKEVIDAISLVDTAEETIELLGDLKLEQVVLEHHHHHH	not soluble
MHLSSSLLLVAAALFALPDGTFECATNGLCGYQPSCAAYSQPRPSCGCASSYGCGSYGCYRLRARGAKSYQPKRGRSRVTVGGSSSEEAREVLRQRMAMERVRRKEQLTSSEELDLVSPSVLRNSKSEQPINPDRAFYECCIDRKLPDACLSKCSFGAFTKPTLQAMYFKQDPCPLDAMKEMQFCAAQGRDHRDCCARNGVTTTLAGPKCLSFCDQRLGRNQQLDMSYVPCFDRFESMKSCFWHDMTRYYKRV	not soluble
VGVKPVGSDPDFQPELSGAGSRLAVVKFTMRGCGPCLRIAPAFSSMSNKYPQAVFLEVDVHQCQGTAATNNISATPTFQFFRNKVRIDQYQGADAVGLEEKIKQHLE	soluble
MGSDKIHHHHHHMKNANHRFFLRERLMKLKTTLFGNVYQFKDVKEVLAKANELRSGDVLAGVAAASSQERVAAKQVLSEMTVADIRNNPVIAYEDDCVTRLIQDDVNETAYNQIKNWSISELREYVLSDETSVDDIAFTRKGLTSEVVAAVAKICSNADLIYGAKKMPVIKKANTTIGIPGTFSARLQPNDTRDDVQSIAAQIYEGLSFGVGDAVIGVNPVTDDVENLSRVLDTIYGVIDKFNIPTQGCVLAHVTTQIEAIRRGAPGGLIFQSICGSEKGLKEFGVELAMLDEARAVGAEFNRIAGENCLYFETGQGSALSAGANFGADQVTMEARNYGLARHYDPFIVNTVVGFIGPEYLYNDRQIIRAGLEDHFMGKLSGISMGCDCCYTNHADADQNLNENLMILLATAGCNYIMGMPLGDDIMLNYQTTAFHDTATVRQLLNLRPSPEFERWLESMGIMANGRLTKRAGDPSLFF	not soluble
ILGYSYGYNGMEANVSKSDYEKHMSDLDTKKIKQDIKKAEKEADITIVMPQMGIEYQKKPTTEQVMLYHSMIKWGADIIFGGHPHVVEPSEVIKKDGQKKFIIYSMGNFISNQRLETVDDIWTE	not soluble
MGSDKIHHHHHHMSHISTADIEQVILPSSRDLGGFSVRRALPAPMRQMVGPFIFLDSFGPVRFGEGEGIDTRPHPHIGLSTLTYLLEGELTHRDSERYVQAIRPGEVNVMVAGAGIVHSERTPEHQRATGGKLAGLQSWIALPKKSEETAPLFQHLDAGSLPTVSGEGIGMKLLAGNLHGRQSPATVFSDLFAAEVHLEAGARYRIDGEHVERAIFVVAGALEIVGQDGNFGQDRLLVFKPGSEIVVKATGPARFLAFGGEPLPEKRFIRWNFVATDQERIRHAADLWRERGFPGVPDDDEFIPLPENFR	not soluble
MGSDKIHHHHHHMWPDRHAKHLTLGRSRQQMLEFENVSKSFWTGTQRKVILDRVSFRVELGKSMGILAPNGTGKSTLINMMAGLEKPDEGVIRRGCNISFPLGFMGGVVGRLSAMENSRYIARLYGMDPDYIEAYCRWLCGLGEYFDQPLGTYSSGMRARFSFALMLALDFDMYLIDEGMPASTDVEFNKKAGAILEERLRTTTIVIVSHQPATLEQFARQAAVLMDGQLHVFDTLEEAKQLYDYQTQG	not soluble
MTTATSERQKTLLFKAAERQWKEEFAGKETDIRKVDCNIYKGILYQLEIRQVFLDTSLSLKKLSALLETNQTYLSNVVNKYFGCNLKELVNTYRVEYAKELLCSRRCALTELPCSCGFASKSAFYSAFSRIVGVSPLSYQTQERRLEHHHHHH	soluble
MSLSKTSKMKKTEISKKPSELGISNKTQDDLSKYSDTVNIALFGVDRRLKTDVSRSDSIMILTMDPAHKKLKLSSIMRDTYVNVDGHGMTKITHAYAYGGPQLAIKTINENFKLNIKDYVTVDFYALEKIIDKLNGVEINVQSDEVGYLNGYIDEVSKYEKVTPNHVTSSGKQLLDGRQAVAYSRIRYTAGGDFVRTERQRTVLMAVFNKLQAQGKSNMVSMFDEILPYTETNMGSIDIAKYGTKFISSDISNIDQERFPLDGYCSGVTVDNVWYLKTDLNVTSDQMRKYIFEDVKPSPKASLVNIPEKEGHHHHHH	soluble
MFGFLRKSQPVPQPQEATSDTIATQHTSAPLSNDMMLLMAEEIPMLDSNSRVRVYEILEQYDGPTICSQEELPREIREMMDL	not soluble
MSLRVEAQNISKTFGEVQALKDLSFVIEKGKALGLLGRNGAGKTTAIRILLGILPSDTGKVLVDNKKLSFDENAFGYLPEERGLYLKYTVKSQLMHFASLYGMKKKEALNSIEYWLEKFEISEYLNKKVETLSKGNKQKIQLIVAVMHDPEVIILDEPFSGLDPVNVELFKTVIRELLAKGKTLIFSSHRMADVEEFCDDIIMLKKGETMLQGNLDKIKEDYGIKGLVVEGEEKVQDFLKELGFEALEFKKGSYRVNLKDLEKGKELLRKITNTDLDIRGFYFERPSLNDIFIERLGEGHHHHHH	soluble
MSLSAVKIAVILPMTGGISAFGRMVWEGIQIAHEEKPTVLGEEVELVLLDTRSEKTEAANAAARAIDKEKVLAIIGEVASAHSLAIAPIAEENKVPMVTPASTNPLVTQGRKFVSRVCFIDPFQGAAMAVFAYKNLGAKRVVVFTDVEQDYSVGLSNFFINKFTELGGQVKRVFFRSGDQDFSAQLSVAMSFNPDAIYITGYYPEIALISRQARQLGFTGYILAGDGADAPELIEIGGEAVEGLLFTTHYHPKAASNPVAKKFVEVYKEKYGKEPAALNALGYDAYMVLLDAIERAGSFDREKIAEEIRKTRNFNGASGIINIDENGDEGHHHHHH	soluble
MAYQLYRNTTLGNSLQESLDELIQSQQITPQLALQVLLQFDKAINSALAQRVRNRVNFRVRMSSCIWKSVLLTLRAYVDLTHHSKIWLVWFGNLFYNRCAKFIHSMCFRIAFRF	not soluble
